Source: US20160312197

What was measured:
Assay in all cases: cell_activity
[1] = biological target: CCR5 ZFN SBS 8266, wild-type ZC linker (FokI) (Artificial Sequence) (UniProt P14870)
[2] = test system: CCR5 ZFN, L7a linker (FokI) (Artificial Sequence)
[3] = test system: CCR5 ZFN, L6a linker (FokI) (Artificial Sequence)
[4] = test system: mROSA-targeted ZFN pair, Wt/Wt linkers (Artificial Sequence); conditions: Neuro2A, mock 0.4
[5] = test system: mROSA-targeted ZFN pair, Wt/L7a linkers (Artificial Sequence); conditions: Neuro2A, mock 0.4
[6] = test system: rat IgM-targeted ZFN pair, one L7a linker (Artificial Sequence); conditions: rat C6 cells
[7] = test system: rat IgM-targeted ZFN pair, ZC linkers (Artificial Sequence); conditions: rat C6 cells
[8] = no cleavage at this spacing, binding not measured

CCR5 ZFN, L7a linker (FokI) (Artificial Sequence), sequence (chain, as listed by the source): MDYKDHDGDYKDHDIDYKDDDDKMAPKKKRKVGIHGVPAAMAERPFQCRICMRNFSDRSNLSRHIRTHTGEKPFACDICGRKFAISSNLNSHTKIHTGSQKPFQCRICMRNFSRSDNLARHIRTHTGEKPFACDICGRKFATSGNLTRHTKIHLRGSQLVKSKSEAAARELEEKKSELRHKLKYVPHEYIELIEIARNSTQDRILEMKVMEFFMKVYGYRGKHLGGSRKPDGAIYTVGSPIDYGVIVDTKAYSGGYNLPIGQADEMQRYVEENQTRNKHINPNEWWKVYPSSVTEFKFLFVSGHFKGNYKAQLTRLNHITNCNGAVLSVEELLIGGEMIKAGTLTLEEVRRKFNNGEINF
CCR5 ZFN SBS 8266, wild-type ZC linker (FokI) (Artificial Sequence), sequence (P14870 other isoform, or with tags, fused parts or gaps): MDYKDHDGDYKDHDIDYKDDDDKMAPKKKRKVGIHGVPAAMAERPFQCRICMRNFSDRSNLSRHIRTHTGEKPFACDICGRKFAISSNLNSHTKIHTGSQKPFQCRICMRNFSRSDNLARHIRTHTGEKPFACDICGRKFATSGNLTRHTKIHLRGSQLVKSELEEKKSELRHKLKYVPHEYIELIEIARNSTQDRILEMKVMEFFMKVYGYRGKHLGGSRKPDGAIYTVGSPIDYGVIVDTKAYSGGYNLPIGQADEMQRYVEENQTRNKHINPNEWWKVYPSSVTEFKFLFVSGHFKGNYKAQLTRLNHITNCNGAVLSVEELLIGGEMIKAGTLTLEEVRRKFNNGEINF
CCR5 ZFN, L6a linker (FokI) (Artificial Sequence), sequence (chain, as listed by the source): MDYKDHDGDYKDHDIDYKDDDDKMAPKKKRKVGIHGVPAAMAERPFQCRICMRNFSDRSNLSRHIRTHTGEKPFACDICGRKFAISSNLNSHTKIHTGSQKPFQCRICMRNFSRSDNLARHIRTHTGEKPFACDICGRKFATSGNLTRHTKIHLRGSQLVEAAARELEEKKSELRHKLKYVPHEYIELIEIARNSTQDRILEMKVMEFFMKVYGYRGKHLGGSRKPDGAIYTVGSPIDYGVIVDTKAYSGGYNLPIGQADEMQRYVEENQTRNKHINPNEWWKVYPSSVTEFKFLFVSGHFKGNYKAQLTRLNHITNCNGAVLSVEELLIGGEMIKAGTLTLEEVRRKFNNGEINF

CCR5 ZFN sites, 4 bp gap
activity ([1]; ZFN pair, average of 2): 1.2 % NHEJ
activity [2, 8]: 0 % NHEJ
activity [3, 8]: 0 % NHEJ

CCR5 ZFN sites, 5 bp gap
activity ([1]; ZFN pair, average of 2): 35 % NHEJ
activity [2, 8]: 0 % NHEJ
activity ([3]; ZFN pair, average of 2): 39.3 % NHEJ

CCR5 ZFN sites, 6 bp gap
activity ([1]; ZFN pair, average of 2): 11.1 % NHEJ
activity ([2]; ZFN pair, average of 2): 31.8 % NHEJ
activity ([3]; ZFN pair, average of 2): 25.4 % NHEJ

CCR5 ZFN sites, 7 bp gap
activity [1, 8]: 0 % NHEJ
activity ([2]; ZFN pair, average of 2): 39.6 % NHEJ
activity ([3]; ZFN pair, average of 2): 5.1 % NHEJ

CCR5 ZFN sites, 8 bp gap
activity [1, 8]: 0 % NHEJ
activity ([2]; ZFN pair, average of 2): 6.1 % NHEJ
activity [3, 8]: 0 % NHEJ

mROSA target, 6 bp gap
activity [4]: 22.6 % NHEJ
activity [5]: 7.5 % NHEJ

rat IgM target, 6 bp gap
activity [6]: 2.43 % NHEJ
activity [7]: 1.93 % NHEJ
